In FireProtDB (doi:10.1016/j.jmb.2005.06.006):
Values joined by “and” are separate entries in the source; they are usually repeats but may differ in a detail not shown here. Equal values may be shown once.

B1: Tryptophan synthase alpha chain, P0A877 (parent)
chain: MERYESLFAQLKERKEGAFVPFVTLGDPGIEQSLKIIDTLIEAGADALELGIPFSDPLADGPTIQNATLRAFAAGVTPAQCFEMLALIRQKHPTIPIGLLMYANLVFNKGIDEFYAQCEKVGVDSVLVADVPVEESAPFRQAALRHNVAPIFICPPNADDDLLRQIASYGRGYTYLLSRAGVTGAENRAALPLNHLVAKLKEYNAAPPLQGFGISAPDQVKAAIDAGAAGAISGSAIVKIIEQHINEPEKMLAALKVFVQPMKAATRS

Variants of: B1
Conditions: Escherichia coli (strain K12); pH 7.8; 25 °C; Urea; CD; Potassium phosphate 10 mM; transition: 3; structure 1WQ5; whole UniProt chain shown

Variant	ddG of mutation (higher = less stable)	denaturant m value	unfolding free energy
L99A	1.69 kcal/mol and 2.38 kcal/mol	2.39 kcal/mol/M and 0.94 kcal/mol/M	4.44 kcal/mol and 2.34 kcal/mol
L176A	2.88 kcal/mol and 1.13 kcal/mol	2.16 kcal/mol/M and 1.01 kcal/mol/M	3.25 kcal/mol and 3.59 kcal/mol
I37A	1.41 kcal/mol and 3.01 kcal/mol	–	4.72 kcal/mol and 1.71 kcal/mol
L127A	0.73 kcal/mol and 0.55 kcal/mol	2.55 kcal/mol/M and 1.1 kcal/mol/M	5.4 kcal/mol and 4.17 kcal/mol
